In article PMC9288512:

The binders below were run against recombinant human proprotein convertase subtilisin/kexin 9 (hPCSK9), his-tagged, Q8NBP7 (assay: SPR). Conditions: chain shown with the change; 25 ℃; parent: ~5.013.
Chain of recombinant human proprotein convertase subtilisin/kexin 9 (hPCSK9), his-tagged, Q8NBP7 (Q8NBP7 153-692): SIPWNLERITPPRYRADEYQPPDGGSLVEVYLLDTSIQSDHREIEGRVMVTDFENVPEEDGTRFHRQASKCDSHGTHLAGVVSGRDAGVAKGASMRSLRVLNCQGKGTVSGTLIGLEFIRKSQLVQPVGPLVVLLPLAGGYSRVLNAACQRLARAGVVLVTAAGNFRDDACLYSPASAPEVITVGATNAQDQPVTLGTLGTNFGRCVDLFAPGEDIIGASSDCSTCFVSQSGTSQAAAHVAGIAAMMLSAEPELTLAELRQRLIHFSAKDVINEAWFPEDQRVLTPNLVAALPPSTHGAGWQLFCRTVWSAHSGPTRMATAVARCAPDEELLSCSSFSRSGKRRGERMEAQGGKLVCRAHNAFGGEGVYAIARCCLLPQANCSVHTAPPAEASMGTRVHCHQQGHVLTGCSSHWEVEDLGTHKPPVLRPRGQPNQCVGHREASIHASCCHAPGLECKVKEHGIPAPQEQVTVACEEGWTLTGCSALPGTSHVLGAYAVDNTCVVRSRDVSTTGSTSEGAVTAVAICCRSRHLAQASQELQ

Binder	Kd
VHH-B11 (monovalent camelid nanobody against hPCSK9) FR1:Q1E; FR1:Q5L; FR1:S11L; FR1:A14P; FR1:T23A; FR1:V24A; FR3:V87L; FR3:K95R; FR3:P96A; FR3:M101V (protein) EVQLLESGGGLVQPGGSLRLSCAASGYTYSSNCMGWFRQAPGKEHEGVASIYIGGGSTYYADSVKGRFTISQDNAKNTLYLQMNSLRAEDTAVYYCAVGCQGLVDFGYWDQGTQVTVSS	3.22 nM
VHH-B11 (monovalent camelid nanobody against hPCSK9) FR1:Q1E; FR1:Q5L; FR1:S11L; FR1:A14P; FR1:T23A; FR1:V24A; FR2:A54S; FR3:A83S; FR3:K95R; FR3:P96A; FR3:M101V (protein) EVQLLESGGGLVQPGGSLRLSCAASGYTYSSNCMGWFRQAPGKEHEGVSSIYIGGGSTYYADSVKGRFTISQDNSKNTVYLQMNSLRAEDTAVYYCAVGCQGLVDFGYWDQGTQVTVSS	11.3 nM
VHH-B11 (monovalent camelid nanobody against hPCSK9) FR1:Q1E; FR1:Q5L; FR1:S11L; FR1:A14P; FR2:A54S; FR3:Q80R; FR3:A83S; FR3:V87L; FR3:K95R; FR3:P96A; FR3:M101V (protein) EVQLLESGGGLVQPGGSLRLSCTVSGYTYSSNCMGWFRQAPGKEHEGVSSIYIGGGSTYYADSVKGRFTISRDNSKNTLYLQMNSLRAEDTAVYYCAVGCQGLVDFGYWDQGTQVTVSS	7.99 nM

Now from value to binder:

Kd	Binder
> 1000 nM	VHH-B11 (monovalent camelid nanobody against hPCSK9) FR1:Q1E; FR1:Q5L; FR1:S11L; FR1:A14P; FR1:T23A; FR1:V24A; FR2:A54S; FR3:A83S; FR3:V87L; FR3:K95R; … (protein) EVQLLESGGGLVQPGGSLRLSCAASGYTYSSNCMGWFRQAPGKEHEGVSSIYIGGGSTYYADSVKGRFTISQDNSKNTLYLQMNSLRAEDTAVYYCAVGCQGLVDFGYWDQGTQVTVSS
> 1000 nM	VHH-B11 (monovalent camelid nanobody against hPCSK9) FR1:Q1E; FR1:Q5L; FR1:S11L; FR1:A14P; FR1:T23A; FR1:V24A; FR2:A54S; FR3:V87L; FR3:K95R; FR3:P96A; FR3:M101V (protein) EVQLLESGGGLVQPGGSLRLSCAASGYTYSSNCMGWFRQAPGKEHEGVSSIYIGGGSTYYADSVKGRFTISQDNAKNTLYLQMNSLRAEDTAVYYCAVGCQGLVDFGYWDQGTQVTVSS
